IntAct's records for PubMed 20453860

B1: Vacuolar protein sorting-associated protein 33 (Saccharomyces cerevisiae), P20795 (parent)
chain: MNRFWNTKKFSLTNADGLCATLNEISQNDEVLVVQPSVLPVLNSLLTFQDLTQSTPVRKITLLDDQLSDDLPSALGSVPQMDLIFLIDVRTSLRLPPQLLDAAQKHNLSSLHIIYCRWKPSFQNTLEDTEQWQKDGFDLNSKKTHFPNVIESQLKELSNEYTLYPWDLLPFPQIDENVLLTHSLYNMENVNMYYPNLRSLQSATESILVDDMVNSLQSLIFETNSIITNVVSIGNLSKRCSHLLKKRIDEHQTENDLFIKGTLYGERTNCGLEMDLIILERNTDPITPLLTQLTYAGILDDLYEFNSGIKIKEKDMNFNYKEDKIWNDLKFLNFGSIGPQLNKLAKELQTQYDTRHKAESVHEIKEFVDSLGSLQQRQAFLKNHTTLSSDVLKVVETEEYGSFNKILELELEILMGNTLNNDIEDIILELQYQYEVDQKKILRLICLLSLCKNSLREKDYEYLRTFMIDSWGIEKCFQLESLAELGFFTSKTGKTDLHITTSKSTRLQKEYRYISQWFNTVPIEDEHAADKITNENDDFSEATFAYSGVVPLTMRLVQMLYDRSILFHNYSSQQPFILSREPRVSQTEDLIEQLYGDSHAIEESIWVPGTITKKINASIKSNNRRSIDGSNGTFHAAEDIALVVFLGGVTMGEIAIMKHLQKILGKKGINKRFIIIADGLINGTRIMNSIS
partner: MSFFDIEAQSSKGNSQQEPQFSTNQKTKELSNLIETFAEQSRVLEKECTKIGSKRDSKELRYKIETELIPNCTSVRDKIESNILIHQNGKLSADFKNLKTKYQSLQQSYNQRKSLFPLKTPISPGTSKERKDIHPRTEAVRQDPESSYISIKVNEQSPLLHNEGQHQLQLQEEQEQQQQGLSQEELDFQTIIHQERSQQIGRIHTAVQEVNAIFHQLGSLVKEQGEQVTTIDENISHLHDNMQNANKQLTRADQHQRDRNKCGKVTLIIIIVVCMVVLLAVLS

Variants of: B1
Conditions: with vam3_yeast VAM3, Q12241

Row | Variant | effect of a mutation on the interaction
1 | L184P | decreasing interaction
2 | D88K | decreasing interaction
